Source: PMC10540216, “Activity Guided Azide-methyllysine Photo-trapping for Substrate Profiling of Lysine Demethylases” (Journal of the American Chemical Society, 2023)

B1: MCCA_HUMAN (protein, UniProt Q96RQ3 42-725, looked up)
Methylcrotonoyl-CoA …: TTATGRNITKVLIANRGEIACRVMRTAKKLGVQTVAVYSEADRNSMHVDMADEAYSIGPAPSQQSYLSMEKIIQVAKTSAAQAIHPGCGFLSENMEFAELCKQEGIIFIGPPPSAIRDMGIKSTSKSIMAAAGVPVVEGYHGEDQSDQCLKEHARRIGYPVMIKAVRGGGGKGMRIVRSEQEFQEQLESARREAKKSFNDDAMLIEKFVDTPRHVEVQVFGDHHGNAVYLFERDCSVQRRHQKIIEEAPAPGIKSEVRKKLGEAAVRAAKAVNYVGAGTVEFIMDSKHNFCFMEMNTRLQVEHPVTEMITGTDLVEWQLRIAAGEKIPLSQEEITLQGHAFEARIYAEDPSNNFMPVAGPLVHLSTPRADPSTRIETGVRQGDEVSVHYDPMIAKLVVWAADRQAALTKLRYSLRQYNIVGLHTNIDFLLNLSGHPEFEAGNVHTDFIPQHHKQLLLSRKAAAKESLCQAALGLILKEKAMTDTFTLQAHDQFSPFSSSSGRRLNISYTRNMTLKDGKNNVAIAVTYNHDGSYSMQIEDKTFQVLGNLYSEGDCTYLKCSVNGVASKAKLIILENTIYLFSKEGSIEIDIPVPKYLSSVSSQETQGGPLAPMTGTIEKVFVKAGDKVKAGDSLMVMIAMKMEHTIKSPKDGTVKKVFYREGAQANRHTPLVEFEEEESDKRESE
B2: C1TM_HUMAN (protein, UniProt Q6UB35 32-978, looked up)
Monofunctional …: SSGGGGGGGGGREGLLGQRRPQDGQARSSCSPGGRTPAARDSIVREVIQNSKEVLSLLQEKNPAFKPVLAIIQAGDDNLMQEINQNLAEEAGLNITHICLPPDSSEAEIIDEILKINEDTRVHGLALQISENLFSNKVLNALKPEKDVDGVTDINLGKLVRGDAHECFVSPVAKAVIELLEKSGVNLDGKKILVVGAHGSLEAALQCLFQRKGSMTMSIQWKTRQLQSKLHEADIVVLGSPKPEEIPLTWIQPGTTVLNCSHDFLSGKVGCGSPRIHFGGLIEEDDVILLAAALRIQNMVSSGRRWLREQQHRRWRLHCLKLQPLSPVPSDIEISRGQTPKAVDVLAKEIGLLADEIEIYGKSKAKVRLSVLERLKDQADGKYVLVAGITPTPLGEGKSTVTIGLVQALTAHLNVNSFACLRQPSQGPTFGVKGGAAGGGYAQVIPMEEFNLHLTGDIHAITAANNLLAAAIDTRILHENTQTDKALYNRLVPLVNGVREFSEIQLARLKKLGINKTDPSTLTEEEVSKFARLDIDPSTITWQRVLDTNDRFLRKITIGQGNTEKGHYRQAQFDIAVASEIMAVLALTDSLADMKARLGRMVVASDKSGQPVTADDLGVTGALTVLMKDAIKPNLMQTLEGTPVFVHAGPFANIAHGNSSVLADKIALKLVGEEGFVVTEAGFGADIGMEKFFNIKCRASGLVPNVVVLVATVRALKMHGGGPSVTAGVPLKKEYTEENIQLVADGCCNLQKQIQITQLFGVPVVVALNVFKTDTRAEIDLVCELAKRAGAFDAVPCYHWSVGGKGSVDLARAVREAASKRSRFQFLYDVQVPIVDKIRTIAQAVYGAKDIELSPEAQAKIDRYTQQGFGNLPICMAKTHLSLSHQPDKKGVPRDFILPISDVRASIGAGFIYPLVGTMSTMPGLPTRPCFYDIDLDTETEQVKGLF
B3: CAPR1_HUMAN (protein, UniProt Q14444 2-709, looked up)
Caprin-1: PSATSHSGSGSKSSGPPPPSGSSGSEAAAGAGAAAPASQHPATGTGAVQTEAMKQILGVIDKKLRNLEKKKGKLDDYQERMNKGERLNQDQLDAVSKYQEVTNNLEFAKELQRSFMALSQDIQKTIKKTARREQLMREEAEQKRLKTVLELQYVLDKLGDDEVRTDLKQGLNGVPILSEEELSLLDEFYKLVDPERDMSLRLNEQYEHASIHLWDLLEGKEKPVCGTTYKVLKEIVERVFQSNYFDSTHNHQNGLCEEEEAASAPAVEDQVPEAEPEPAEEYTEQSEVESTEYVNRQFMAETQFTSGEKEQVDEWTVETVEVVNSLQQQPQAASPSVPEPHSLTPVAQADPLVRRQRVQDLMAQMQGPYNFIQDSMLDFENQTLDPAIVSAQPMNPTQNMDMPQLVCPPVHSESRLAQPNQVPVQPEATQVPLVSSTSEGYTASQPLYQPSHATEQRPQKEPIDQIQATISLNTDQTTASSSLPAASQPQVFQAGTSKPLHSSGINVNAAPFQSMQTVFNMNAPVPPVNEPETLKQQNQYQASYNQSFSSQPHQVEQTELQQEQLQTVVGTYHGSPDQSHQVTGNHQQPPQQNTGFPRSNQPYYNSRGVSRGGSRGARGLMNGYRGPANGFRGGYDGYRPSFSNTPNSGYTQSQFSAPRDYSGYQRDGYQQNFKRGSGQSGPRGAPRGRGGPPRPNRGMPQMNTQQVN
B4: NU160_HUMAN (protein, UniProt Q12769 1-1436, looked up)
Nuclear pore complex protein …: MLHLSAAPPAPPPEVTATARPCLCSVGRRGDGGKMAAAGALERSFVELSGAERERPRHFREFTVCSIGTANAVAGAVKYSESAGGFYYVESGKLFSVTRNRFIHWKTSGDTLELMEESLDINLLNNAIRLKFQNCSVLPGGVYVSETQNRVIILMLTNQTVHRLLLPHPSRMYRSELVVDSQMQSIFTDIGKVDFTDPCNYQLIPAVPGISPNSTASTAWLSSDGEALFALPCASGGIFVLKLPPYDIPGMVSVVELKQSSVMQRLLTGWMPTAIRGDQSPSDRPLSLAVHCVEHDAFIFALCQDHKLRMWSYKEQMCLMVADMLEYVPVKKDLRLTAGTGHKLRLAYSPTMGLYLGIYMHAPKRGQFCIFQLVSTESNRYSLDHISSLFTSQETLIDFALTSTDIWALWHDAENQTVVKYINFEHNVAGQWNPVFMQPLPEEEIVIRDDQDPREMYLQSLFTPGQFTNEALCKALQIFCRGTERNLDLSWSELKKEVTLAVENELQGSVTEYEFSQEEFRNLQQEFWCKFYACCLQYQEALSHPLALHLNPHTNMVCLLKKGYLSFLIPSSLVDHLYLLPYENLLTEDETTISDDVDIARDVICLIKCLRLIEESVTVDMSVIMEMSCYNLQSPEKAAEQILEDMITIDVENVMEDICSKLQEIRNPIHAIGLLIREMDYETEVEMEKGFNPAQPLNIRMNLTQLYGSNTAGYIVCRGVHKIASTRFLICRDLLILQQLLMRLGDAVIWGTGQLFQAQQDLLHRTAPLLLSYYLIKWGSECLATDVPLDTLESNLQHLSVLELTDSGALMANRFVSSPQTIVELFFQEVARKHIISHLFSQPKAPLSQTGLNWPEMITAITSYLLQLLWPSNPGCLFLECLMGNCQYVQLQDYIQLLHPWCQVNVGSCRFMLGRCYLVTGEGQKALECFCQAASEVGKEEFLDRLIRSEDGEIVSTPRLQYYDKVLRLLDVIGLPELVIQLATSAITEAGDDWKSQATLRTCIFKHHLDLGHNSQAYEALTQIPDSSRQLDCLRQLVVVLCERSQLQDLVEFPYVNLHNEVVGIIESRARAVDLMTHNYYELLYAFHIYRHNYRKAGTVMFEYGMRLGREVRTLRGLEKQGNCYLAALNCLRLIRPEYAWIVQPVSGAVYDRPGASPKRNHDGECTAAPTNRQIEILELEDLEKECSLARIRLTLAQHDPSAVAVAGSSSAEEMVTLLVQAGLFDTAISLCQTFKLPLTPVFEGLAFKCIKLQFGGEAAQAEAWAWLAANQLSSVITTKESSATDEAWRLLSTYLERYKVQNNLYHHCVINKLLSHGVPLPNWLINSYKKVDAAELLRLYLNYDLLEEAVDLVSEYVDAVLGKGHQYFGIEFPLSATAPMVWLPYSSIDQLLQALGENSANSHNIALSQKILDKLEDYQQKVDKATRDLLYRRTL
B5: HNRPM_HUMAN (protein, UniProt P52272 2-730, looked up)
Heterogeneous nuclear …: AAGVEAAAEVAATEIKMEEESGAPGVPSGNGAPGPKGEGERPAQNEKRKEKNIKRGGNRFEPYANPTKRYRAFITNIPFDVKWQSLKDLVKEKVGEVTYVELLMDAEGKSRGCAVVEFKMEESMKKAAEVLNKHSLSGRPLKVKEDPDGEHARRAMQKVMATTGGMGMGPGGPGMITIPPSILNNPNIPNEIIHALQAGRLGSTVFVANLDYKVGWKKLKEVFSMAGVVVRADILEDKDGKSRGIGTVTFEQSIEAVQAISMFNGQLLFDRPMHVKMDERALPKGDFFPPERPQQLPHGLGGIGMGLGPGGQPIDANHLNKGIGMGNIGPAGMGMEGIGFGINKMGGMEGPFGGGMENMGRFGSGMNMGRINEILSNALKRGEIIAKQGGGGGGGSVPGIERMGPGIDRLGGAGMERMGAGLGHGMDRVGSEIERMGLVMDRMGSVERMGSGIERMGPLGLDHMASSIERMGQTMERIGSGVERMGAGMGFGLERMAAPIDRVGQTIERMGSGVERMGPAIERMGLSMERMVPAGMGAGLERMGPVMDRMATGLERMGANNLERMGLERMGANSLERMGLERMGANSLERMGPAMGPALGAGIERMGLAMGGGGGASFDRAIEMERGNFGGSFAGSFGGAGGHAPGVARKACQIFVRNLPFDFTWKMLKDKFNECGHVLYADIKMENGKSKGCGVVKFESPEVAERACRMMNGMKLSGREIDVRIDRNA
B6: P5CS_HUMAN (protein, UniProt P54886 1-795, looked up)
Delta-1-pyrroline-5-carboxylat …: MLSQVYRCGFQPFNQHLLPWVKCTTVFRSHCIQPSVIRHVRSWSNIPFITVPLSRTHGKSFAHRSELKHAKRIVVKLGSAVVTRGDECGLALGRLASIVEQVSVLQNQGREMMLVTSGAVAFGKQRLRHEILLSQSVRQALHSGQNQLKEMAIPVLEARACAAAGQSGLMALYEAMFTQYSICAAQILVTNLDFHDEQKRRNLNGTLHELLRMNIVPIVNTNDAVVPPAEPNSDLQGVNVISVKDNDSLAARLAVEMKTDLLIVLSDVEGLFDSPPGSDDAKLIDIFYPGDQQSVTFGTKSRVGMGGMEAKVKAALWALQGGTSVVIANGTHPKVSGHVITDIVEGKKVGTFFSEVKPAGPTVEQQGEMARSGGRMLATLEPEQRAEIIHHLADLLTDQRDEILLANKKDLEEAEGRLAAPLLKRLSLSTSKLNSLAIGLRQIAASSQDSVGRVLRRTRIAKNLELEQVTVPIGVLLVIFESRPDCLPQVAALAIASGNGLLLKGGKEAAHSNRILHLLTQEALSIHGVKEAVQLVNTREEVEDLCRLDKMIDLIIPRGSSQLVRDIQKAAKGIPVMGHSEGICHMYVDSEASVDKVTRLVRDSKCEYPAACNALETLLIHRDLLRTPLFDQIIDMLRVEQVKIHAGPKFASYLTFSPSEVKSLRTEYGDLELCIEVVDNVQDAIDHIHKYGSSHTDVIVTEDENTAEFFLQHVDSACVFWNASTRFSDGYRFGLGAEVGISTSRIHARGPVGLEGLLTTKWLLRGKDHVVSDFSEHGSLKYLHENLPIPQRNTN
B7: DDX5_HUMAN (protein, UniProt P17844 1-614, looked up)
Probable ATP-dependent RNA …: MSGYSSDRDRGRDRGFGAPRFGGSRAGPLSGKKFGNPGEKLVKKKWNLDELPKFEKNFYQEHPDLARRTAQEVETYRRSKEITVRGHNCPKPVLNFYEANFPANVMDVIARQNFTEPTAIQAQGWPVALSGLDMVGVAQTGSGKTLSYLLPAIVHINHQPFLERGDGPICLVLAPTRELAQQVQQVAAEYCRACRLKSTCIYGGAPKGPQIRDLERGVEICIATPGRLIDFLECGKTNLRRTTYLVLDEADRMLDMGFEPQIRKIVDQIRPDRQTLMWSATWPKEVRQLAEDFLKDYIHINIGALELSANHNILQIVDVCHDVEKDEKLIRLMEEIMSEKENKTIVFVETKRRCDELTRKMRRDGWPAMGIHGDKSQQERDWVLNEFKHGKAPILIATDVASRGLDVEDVKFVINYDYPNSSEDYIHRIGRTARSTKTGTAYTFFTPNNIKQVSDLISVLREANQAINPKLLQLVEDRGSGRSRGRGGMKDDRRDRYSAGKRGGFNTFRDRENYDRGYSSLLKRDFGAKTQNGVYSAANYTNGSFGSNFVSAGIQTSFRTGNPTGTYQNGYDSTQQYGSNVPNMHNGMNQQAYAYPATAAAPMIGYPMPTGYSQ

Test system: KDM4A-I71AzF
Assay: CASI: photo-crosslinking with HEK293T cell extracts, StrepTactin enrichment and LC-MS/MS proteomics;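 further: lysates from HEK293T cells pretreated with a KDM4 inhibitor to raise proteome methylation, affinity-purified after ±UV, gel-resolved, trypsin-digested, with exclusive unique peptides per protein averaged per condition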
Type: binding, human
Conditions: sheet "Final results but with 0.01"

| Molecule | Fold change (+UV/-UV) |
| --- | --- |
| B1 | 0 |
| B2 | 1.091 |
| B3 | 0.5 |
| B4 | 0.5 |
| B5 | 1 |
| B6 | 2.143 |
| B7 | 1.6 |
